According to patent US20040006022A1 (Harvard, published 2004):
Like-named read-outs stand apart in the source and are kept apart here.

How the values were obtained:
[1] = target: T1, recombinant water-soluble 'empty' HLA-DR4 (DRB1*0401) (human)
T1 chain 1: not shown
T1 chain 2: not shown

[2] = target: T2, recombinant water-soluble 'empty' HLA-DR1 (DRB1*0101) (human)
T2 chain 1: not shown
T2 chain 2: not shown

[3] = target: T3, HLA-DR1 on L fibroblasts transfected with HLA-DR1 (L57.23) (human); assay: cell-based or functional assay
T3 chain 1: not shown
T3 chain 2: not shown

[4] = target: T4, HLA-DR4 on L fibroblasts transfected with HLA-DR4 (human); assay: cell-based or functional assay
T4 chain 1: not shown
T4 chain 2: not shown

[5] = target: T2, recombinant water-soluble 'empty' …; assay: competitive binding ELISA on recombinant HLA-DR1; competitor biotinylated YEAK
[6] = target: T1, recombinant water-soluble 'empty' …; assay: competitive binding ELISA on recombinant HLA-DR4; competitor biotinylated YEAK

In the case of APKYVKQNTLKLATA (modifications not checked) [HA 306-318 bracketed by alanines at N- and C-terminals, …], the affinity determined by competition [1] is reported as 26 µM, the affinity determined by competition [2] is reported as 13 µM and the inhibition of the response of 3.19 T cells (IL-2 secretion) [3] is reported as > 98%. For the same binder, the inhibition of the response of 19.3 T cells (IL-2 secretion) [3] was > 95%, the inhibition of the DR4 3838 T cell clone (IL-2 secretion) [4] was < 60% and the inhibition of the DR4 D3 T cell clone (IL-2 secretion) [4] was < 60%. For the same binder, the affinity determined by competition [5] was 3.3 µM and the affinity determined by competition [6] was 8.2 µM.
